Measured values reported in article PMC2965767, “Identification and Genome-Wide Prediction of DNA Binding Specificities for the ApiAP2 Family of Regulators from the Malaria Parasite”.

Tests used:
[1] = biological target: T1, PFL1900w D1ext (PF3D7_1239200, AP2 domain transcription factor, putative) (Plasmodium falciparum) (UniProt Q8I531); conditions: PBM; highest protein concentration obtained; buffer not given; scale: PBM E-score of the seed 8-mer
T1 sequence: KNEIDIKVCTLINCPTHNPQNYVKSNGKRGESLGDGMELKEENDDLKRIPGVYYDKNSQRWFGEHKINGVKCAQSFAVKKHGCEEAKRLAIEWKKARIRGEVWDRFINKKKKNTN

[2] = biological target: T2, PF13_0235 D1ext (PF3D7_1342900, AP2 domain transcription factor, putative) (Plasmodium falciparum) (UniProt C0H5G5); conditions: PBM; highest protein concentration obtained; buffer not given; scale: PBM E-score of the seed 8-mer
T2 sequence: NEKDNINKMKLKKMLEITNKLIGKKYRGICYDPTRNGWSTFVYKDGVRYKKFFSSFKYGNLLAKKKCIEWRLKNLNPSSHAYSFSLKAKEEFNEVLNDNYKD

[3] = biological target: T3, PF10_0075 D2ext (PF3D7_1007700, AP2 domain transcription factor AP2-I) (Plasmodium falciparum) (UniProt Q8IJW6); conditions: PBM; highest protein concentration obtained; buffer not given; scale: PBM E-score of the seed 8-mer
T3 sequence: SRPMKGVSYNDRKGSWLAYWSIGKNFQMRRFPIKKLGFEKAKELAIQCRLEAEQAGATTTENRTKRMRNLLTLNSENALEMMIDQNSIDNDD

[4] = biological target: T4, PF14_0079 D1 (PF3D7_1408200, AP2 domain transcription factor AP2-G2, putative) (Plasmodium falciparum) (UniProt Q8IM14); conditions: PBM; highest protein concentration obtained; buffer not given; scale: PBM E-score of the seed 8-mer
T4 sequence: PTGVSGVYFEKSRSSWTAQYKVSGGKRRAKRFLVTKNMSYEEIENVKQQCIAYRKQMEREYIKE

[5] = biological target: T5, PF11_0442 D1ext (PF3D7_1143100, AP2 domain transcription factor AP2-O, putative) (Plasmodium falciparum) (UniProt Q8IHT5); conditions: PBM; highest protein concentration obtained; buffer not given; scale: PBM E-score of the seed 8-mer
T5 sequence: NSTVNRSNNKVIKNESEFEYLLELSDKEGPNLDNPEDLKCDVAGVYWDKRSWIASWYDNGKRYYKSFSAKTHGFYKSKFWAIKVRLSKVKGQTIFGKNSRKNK

[6] = biological target: T6, PFD0985w D1 (ApiAP2) (Plasmodium falciparum) (UniProt Q8I1N6); conditions: PBM; highest protein concentration obtained; buffer not given; scale: PBM E-score of the seed 8-mer
T6 sequence: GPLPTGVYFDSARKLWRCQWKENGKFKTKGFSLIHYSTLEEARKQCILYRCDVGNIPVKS

[7] = biological target: T7, PFF0200c DLD (PF3D7_0604100, AP2 domain transcription factor) (Plasmodium falciparum) (UniProt C6KSN9); conditions: PBM; highest protein concentration obtained; buffer not given; scale: PBM E-score of the seed 8-mer
T7 sequence: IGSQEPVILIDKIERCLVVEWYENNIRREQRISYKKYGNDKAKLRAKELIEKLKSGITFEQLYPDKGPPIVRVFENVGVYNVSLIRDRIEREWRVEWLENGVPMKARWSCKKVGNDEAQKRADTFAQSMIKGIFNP

[8] = biological target: T8, MAL8P1.153 D1 (PF3D7_0802100, AP2 domain transcription factor, putative) (Plasmodium falciparum) (UniProt Q8IAM1); conditions: PBM; highest protein concentration obtained; buffer not given; scale: PBM E-score of the seed 8-mer
T8 sequence: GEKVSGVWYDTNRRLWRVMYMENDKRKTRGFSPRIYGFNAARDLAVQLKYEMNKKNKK

[9] = biological target: T9, PF07_0126 DLDext (PF3D7_0730300, AP2 domain transcription factor AP2-L, putative) (Plasmodium falciparum) (UniProt Q8IBF6); conditions: PBM; highest protein concentration obtained; buffer not given; scale: PBM E-score of the seed 8-mer
T9 sequence: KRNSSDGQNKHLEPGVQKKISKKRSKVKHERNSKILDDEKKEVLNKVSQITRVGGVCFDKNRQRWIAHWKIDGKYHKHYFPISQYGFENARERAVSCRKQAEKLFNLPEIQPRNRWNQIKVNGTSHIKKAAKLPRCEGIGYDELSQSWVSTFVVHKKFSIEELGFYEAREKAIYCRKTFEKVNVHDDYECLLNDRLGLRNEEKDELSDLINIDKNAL

[10] = biological target: T10, PFE0840c D2 (PF3D7_0516800, AP2 domain transcription factor AP2-O2, putative) (Plasmodium falciparum) (UniProt Q8I3U0); conditions: PBM; highest protein concentration obtained; buffer not given; scale: PBM E-score of the seed 8-mer
T10 sequence: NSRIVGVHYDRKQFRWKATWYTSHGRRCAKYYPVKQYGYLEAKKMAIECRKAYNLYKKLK

[11] = biological target: T11, PF11_0404 D1 (PF3D7_1139300, AP2 domain transcription factor, putative) (Plasmodium falciparum) (UniProt Q8IHX2); conditions: PBM; highest protein concentration obtained; buffer not given; scale: PBM E-score of the seed 8-mer
T11 sequence: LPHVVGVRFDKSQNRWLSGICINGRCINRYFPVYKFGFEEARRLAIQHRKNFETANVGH

[12] = biological target: T12, PFF0670w D1 (PF3D7_0613800, AP2 domain transcription factor, putative) (Plasmodium falciparum) (UniProt C6KSY0); conditions: PBM; highest protein concentration obtained; buffer not given; scale: PBM E-score of the seed 8-mer
T12 sequence: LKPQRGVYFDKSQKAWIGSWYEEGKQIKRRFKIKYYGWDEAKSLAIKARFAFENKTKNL

[13] = biological target: T13, PF11_0091 D1 (PF3D7_1107800, AP2 domain transcription factor, putative) (Plasmodium falciparum) (UniProt Q8IIS4); conditions: PBM; highest protein concentration obtained; buffer not given; scale: PBM E-score of the seed 8-mer
T13 sequence: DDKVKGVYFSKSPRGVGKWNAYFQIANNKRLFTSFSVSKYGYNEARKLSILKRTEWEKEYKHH

[14] = biological target: T14, PF13_0026 D1 (PF3D7_1305200, AP2 domain transcription factor, putative) (Plasmodium falciparum) (UniProt Q8IER4); conditions: PBM; highest protein concentration obtained; buffer not given; scale: PBM E-score of the seed 8-mer
T14 sequence: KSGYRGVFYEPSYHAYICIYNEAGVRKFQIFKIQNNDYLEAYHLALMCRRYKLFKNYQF

[15] = biological target: T15, PF13_0267 D1 (PF3D7_1350900, AP2 domain transcription factor AP2-O4, putative) (Plasmodium falciparum, UniProt A0A5K1K8Z4 400-521); assay: EMSA; 5 mM MgCl2 with 10 mM EDTA; LightShift buffer, 2.5% glycerol, 50 mM KCl, 0.05% NP-40, 50 ng/uL poly(dI-dC); room temperature, 20 min; conditions: tags: N-terminal GST (pGEX-4T1), kept; label: 5' biotin
T15 sequence: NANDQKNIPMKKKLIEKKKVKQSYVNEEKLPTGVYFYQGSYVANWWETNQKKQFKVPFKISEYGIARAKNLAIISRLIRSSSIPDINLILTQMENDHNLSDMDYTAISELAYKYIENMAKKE

[16] = biological target: T16, PFL1900w DLD (PF3D7_1239200, AP2 domain transcription factor, putative) (Plasmodium falciparum, UniProt Q8I531 2149-2347); assay: as above; conditions: tags: N-terminal GST (pGEX-4T1), kept; label: 5' biotin
T16 sequence: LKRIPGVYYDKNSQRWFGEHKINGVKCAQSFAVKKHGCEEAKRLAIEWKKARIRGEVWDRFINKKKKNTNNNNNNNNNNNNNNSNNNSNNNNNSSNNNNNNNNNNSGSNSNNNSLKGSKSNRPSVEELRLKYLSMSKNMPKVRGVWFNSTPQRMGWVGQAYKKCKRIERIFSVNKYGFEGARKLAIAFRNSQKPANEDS

[17] = biological target: T17, PF13_0235 D1ext (PF3D7_1342900, AP2 domain transcription factor, putative) (Plasmodium falciparum, UniProt C0H5G5 2339-2440); assay: as above; conditions: tags: N-terminal GST (pGEX-4T1), kept; label: 5' biotin
T17 sequence: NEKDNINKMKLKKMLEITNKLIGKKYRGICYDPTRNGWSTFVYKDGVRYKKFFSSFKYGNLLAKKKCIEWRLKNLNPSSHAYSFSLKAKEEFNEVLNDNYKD

[18] = biological target: T18, PFD0985w_D2 (AP2 domain 2) (Plasmodium falciparum, UniProt Q8I1N6 3268-3321); assay: EMSA; poly(dI-dC); LightShift EMSA buffer, 2.5% glycerol, 5 mM MgCl2, 10 mM EDTA, 50 mM KCl, 0.05% NP-40, 50 ng/uL poly(dI-dC), 10 fmol biotin probe, 50 or 250x competitor, room temperature 20 min; conditions: protein: recombinant; tags: N-terminal GST (pGEX-4T1); label: 5' biotin (probe); blunt
T18 sequence: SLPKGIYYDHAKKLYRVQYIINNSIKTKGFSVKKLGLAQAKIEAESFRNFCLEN

[19] = biological target: T18, PFD0985w_D2 (AP2 domain 2); assay: EMSA; poly(dI-dC); bound equally well as primary motif; LightShift EMSA buffer, 2.5% glycerol, 5 mM MgCl2, 10 mM EDTA, 50 mM KCl, 0.05% NP-40, 50 ng/uL poly(dI-dC), 10 fmol biotin probe, 50 or 250x competitor, room temperature 20 min; conditions: protein: recombinant; tags: N-terminal GST (pGEX-4T1); label: 5' biotin (probe); blunt

TTCTACA (double strand) [PFL1900w_D1 primary motif]
binding signal [1]: 0.46

AWGGKMCC / GGKMCCWT [PF13_0235_D1 Secondary motif 1]
binding signal [2]: > 0.45

TCTTGCC (double strand) [PF10_0075_D2 primary motif]
binding signal [3]: 0.468

TGCNACCA (double strand) [PF14_0079 primary motif]
binding signal [4]: 0.487

AGCTAGCT (double strand) [PF11_0442 primary motif]
binding signal [5]: 0.478

GTGTGTG (double strand) [PFD0985w_D1 primary motif]
binding signal [6]: 0.497

GCCCCGC (double strand) [PF13_0235_D1 primary motif]
binding signal [2]: 0.494

GTGCAC (double strand) [PFF0200c_DLD primary motif]
binding signal [7]: 0.481

CACACACA (double strand) [MAL8P1.153 primary motif]
binding signal [8]: 0.477

AATTTCC (double strand) [PF07_0126_DLD primary motif]
binding signal [9]: 0.467

TGACATCA (double strand) [PFE0840c_D2 primary motif]
binding signal [10]: 0.472

TAGATCGA (double strand) [PF11_0404_D1 Secondary motif 1]
binding signal [11]: > 0.45

TAGAACAA (double strand) [PF11_0404_D1 primary motif]
binding signal [11]: 0.485

WTAAGCC (double strand) [PFF0670w_D1 primary motif]
binding signal [12]: 0.465

AGCATAC (double strand) [PF11_0091 primary motif]
binding signal [13]: 0.472

TGCACACAC (double strand) [PF13_0026 primary motif]
binding signal [14]: 0.495

B1: pfc0975c (dsDNA)
DNA 1: TTATGATGATACATAAATTACTGATCTTTCTAGGTGCGCTGCTACCATTATCGTGAATAA
DNA 2: TTATTCACGATAATGGTAGCAGCGCACCTAGAAAGATCAGTAATTTATGTATCATCATAA
binding result [15]: binds

B2: pfc0975c-MUT (dsDNA)
DNA 1: TTATGATGATACATAAATTACTGATCTTTCAAAGTGCGCTGCTACCATTATCGTGAATAA
DNA 2: TTATTCACGATAATGGTAGCAGCGCACTTTGAAAGATCAGTAATTTATGTATCATCATAA
binding result [15]: no binding

B3: PFL1900w_DLD-1 (motif rank) (dsDNA)
DNA 1: AATATTATAATAGTCGTAGCCATCAATTCTACAAAATGGTAATATAGATTTTCGTTTATATT
DNA 2: AATATAAACGAAAATCTATATTACCATTTTGTAGAATTGATGGCTACGACTATTATAATATT
binding result [16]: binds

B4: PFL1900w_DLD-2 (motif rank) (dsDNA)
DNA 1: AATATTATAATAGTCGTAGCCATCAATACGACATCATGGTAATATAGATTTTCGTTTATATT
DNA 2: AATATAAACGAAAATCTATATTACCATGATGTCGTATTGATGGCTACGACTATTATAATATT
binding result [16]: binds

B5: hsp86-MUT3 (dsDNA)
DNA 1: TTTTAAAAAAAAAAAAAAAGTATAGCGGAAATATACCATTGGATATATATTTAGTATTCC
DNA 2: GGAATACTAAATATATATCCAATGGTATATTTCCGCTATACTTTTTTTTTTTTTTTAAAA
binding result [17]: no binding

B6: PFD0985w_D2-1° (dsDNA)
DNA 1: AATATTATAATAGTCGTAGCCATCAATGTGTAACACATGGTAATATAGATTTTCGTTTATATT
DNA 2: AATATAAACGAAAATCTATATTACCATGTGTTACACATTGATGGCTACGACTATTATAATATT
binding result [18]: binds

B7: PFD0985w_D2-2° (dsDNA)
DNA 1: AATATTATAATAGTCGTAGCCATCAATCCACACACCATGGTAATATAGATTTTCGTTTATATT
DNA 2: AATATAAACGAAAATCTATATTACCATGGTGTGTGGATTGATGGCTACGACTATTATAATATT
binding result [19]: binds

B8: hsp86 (dsDNA)
DNA 1: TTTTAAAAAAAAAAAAAAAGCCCCGCGGAAAGGGGCCATTGGATATATATTTAGTATTCC
DNA 2: GGAATACTAAATATATATCCAATGGCCCCTTTCCGCGGGGCTTTTTTTTTTTTTTTAAAA
binding result [17]: binds
